± gives the uncertainty stated by the source.
Experiment: self-splicing fitness, log relative to wild type (ln ratio); higher = more splicing; Tetrahymena group I intron in knt gene, E. coli kanamycin selection, DiMSum; sequences stand for … in CUCUCU…GGAGGGAAAAGUUAUCAGGCAUGCACCUGGUAGCUAGUCUUUAAACCAAUAGAUUGCAUCGGUUUAAAAGGCAAGACCGUCAAAUUGCGGGAAAGGGGUCAACAGCCGUUCAGUACCAAGUCUCAGGGGAAACUUUGAGAUGGCCUUGCAAAGGGUAUGGUAAUAAGCUGACGGACAUGGUCCUAACCACGCAGCCAAGUCCUAAGUCAACAGAUCUUCUGUUGAUAUGGAUGCAGUUCACAGACUAAAUGUCGGUCGGGGAAGAUGUAUUCUUCUCAUAAGAUAUAGUCGGACCUCUCCUUAAUGGGAGCUAGCGGAUGAAGUGAUGCAACACUGGAGCCGCUGGGAACUAAUUUGUAUGCGAAAGUAUAUUGAUUAGUUUUGGAGUACUCGUGGUCG
Procedure, shortened: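 A randomised library covering all eight P1ex-region intron nucleotides was built with the intron in the knt kanamycin-resistance gene on pET-22b(+) and held in E. coli BL21(DE3). Cells were grown overnight at 37°C or 30°C on LB agar, with or without 25 μg/mL kanamycin, plus 100 μg/mL carbenicillin, 50 μM IPTG and 0.2% rhamnose, and pooled colonies were amplicon-sequenced on an Illumina HiSeq 2500. DiMSum fitness is the error-weighted combination of wild-type-normalised replicate fold changes, kanamycin versus none.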

Sequence	self-splicing fitness (ln) (30 °C)	self-splicing fitness (ln) (37 °C)
AAGAAGCAAUAUUACGAACU	-0.3 ± 0.091	0.86 ± 0.11
AAGAAGCAAUAUUACGAAUU	-1.53 ± 0.084	-0.992 ± 0.12
AAGAAGCAAUAUUACGACAU	-0.0917 ± 0.012	-0.0361 ± 0.032
AAGAAGCAAUAUUACGACGG	-1.52 ± 0.078	-1.15 ± 0.14
AAGAAGCAAUAUUACGAGGG	-3.5 ± 0.3	-2.32 ± 0.35
AAGAAGCAAUAUUACGAGUC	-2.53 ± 0.23	-1.51 ± 0.25
AAGAAGCAAUAUUACGCCAG	-2.87 ± 0.26	-2.3 ± 0.27
AAGAAGCAAUAUUACGCGCA	0.0488 ± 0.077	0.115 ± 0.1
AAGAAGCAAUAUUACGCGGG	-2.95 ± 0.2	-0.684 ± 0.11
AAGAAGCAAUAUUACGCGGU	-3.58 ± 0.3	-1.54 ± 0.19
AAGAAGCAAUAUUACGCUAU	-3.04 ± 0.17	-1.44 ± 0.17
AAGAAGCAAUAUUACGGAAC	–	-2.58 ± 0.45
AAGAAGCAAUAUUACGGAAU	-1.67 ± 0.12	-1.85 ± 0.2
AAGAAGCAAUAUUACGGAUC	-1.23 ± 0.11	0.142 ± 0.17
AAGAAGCAAUAUUACGGCUU	-2.42 ± 0.14	-3.23 ± 0.24
AAGAAGCAAUAUUACGGGCG	-1.48 ± 0.081	-0.421 ± 0.11
AAGAAGCAAUAUUACGGGUC	-4.04 ± 0.35	-1.69 ± 0.21
AAGAAGCAAUAUUACGUGCA	-0.663 ± 0.08	-0.0733 ± 0.1
AAGAAGCAAUAUUACGUGGA	-2.97 ± 0.12	-2.44 ± 0.12

Sequence	self-splicing fitness (ln) (30 °C)	self-splicing fitness (ln) (37 °C)
AAGAAGCAAUAUUACGUUCG	-0.932 ± 0.084	-0.625 ± 0.1
AAGAAGCAAUAUUACGUUGA	-1.76 ± 0.12	-2.25 ± 0.14
AAGCAGCAAUAUUACGAAAA	-2.81 ± 0.25	-1.77 ± 0.16
AAGCAGCAAUAUUACGAAAU	-2.65 ± 0.11	-1.33 ± 0.12
AAGCAGCAAUAUUACGACGA	-0.888 ± 0.089	-0.307 ± 0.094
AAGCAGCAAUAUUACGAGCA	-0.694 ± 0.073	-0.435 ± 0.086
AAGCAGCAAUAUUACGAUAC	-2.7 ± 0.14	-1.7 ± 0.18
AAGCAGCAAUAUUACGAUGA	-0.809 ± 0.078	-0.909 ± 0.083
AAGCAGCAAUAUUACGCCGU	-1.22 ± 0.11	-0.738 ± 0.13
AAGCAGCAAUAUUACGCGAG	-0.949 ± 0.095	-0.986 ± 0.11
AAGCAGCAAUAUUACGCGCC	-1.33 ± 0.11	-1.24 ± 0.15
AAGCAGCAAUAUUACGCGGC	-3.33 ± 0.35	-2.4 ± 0.24
AAGCAGCAAUAUUACGCUAA	-1.46 ± 0.075	-1.12 ± 0.086
AAGCAGCAAUAUUACGCUCC	-1.82 ± 0.16	-0.511 ± 0.2
AAGCAGCAAUAUUACGCUGG	-3.27 ± 0.21	-1.72 ± 0.15
AAGCAGCAAUAUUACGCUUG	-2.89 ± 0.16	-2.14 ± 0.16
AAGCAGCAAUAUUACGGCUG	-2.92 ± 0.12	-2.75 ± 0.16
AAGCAGCAAUAUUACGGUAG	-3.38 ± 0.15	-3.25 ± 0.2
AAGCAGCAAUAUUACGUAAU	-1.49 ± 0.068	-0.923 ± 0.094

Source: the supplement of paper PMC7877785
